# In paper doi:10.1101/2020.09.04.283184 (bioRxiv, 2020):
# B1: Chlamydomonas reinhardtii SAS-6[NL] homodimer (domain or fragment, UniProt A9CQL4 1-503, looked up)
# chain: MPLLLDDGDPKAQTGFDLSTATTLFWRPVPVHVKQQDREDVLEELTFRILTGVAKQNHNLRILRIHISSDSDLFFLHTLEVSEEDFQSLKNDQGILVDFASFPGKIISLLEKCILAQPGDSPRFQAVLTIRGGESVFKIVEINDFKQLPHITLAFRPGNDSVVKQFLAFRLSEVKGTCHDLSDDLSRTRDDRDSMVAQLAQCRQQLAQLREQYDKHLLEVQAQAKTQQASAHEERIREKSQLKDQFEKERGEMEGRYRDQIAALNTRLGELDTENRKLREVKYELDTKVSELSHKLGSSEGSNRSLEEETARLRSLNQQLSSSKHELEIQLNEAKAKVLALDEKAQSQGDVIEQQRGRLRDMEAALRQTEQRCADLRDTLASAEGRAKEAQAEVLKGNQAIEKLTNDLRLAKEKTKRKAAIILRQEEELQEREQSLANATRDVGVLGQQAESLRKDVASLHSENDSLRSKLEDSKQQLQSNEQMIRWLNQQVTEAQLHASGAT
# Biological target: the molecule itself
# Experiment: PORT-HS-AFM
protein,measurement,value
B1,stoichiometry N,7 to 10 homodimers
